The values below are quoted from earlier work in article PMC9260958.

The target in the data set is Cys647 (UniProt position 647, LGEVHCGTNVR). Kind of data set: chemical modification (pH dependence of enzyme inactivation kinetics). The note with it: not stated (the inactivator is not named in the sentence that gives the value).

For “Protein arginine deiminase 2 (peptidylarginine deiminase 2, PAD2) (Homo sapiens (inferred; not stated in the article))”, the pKa entry is “∼8.2”.
